# Measurements reported in paper PMC9695803.
# Target: Human parvovirus B19 major capsid protein VP2 (human parvovirus B19)
substance,measurement,value
Human parvovirus B19 minor capsid protein VP1 (from UniProt Q9PZT0 1-781) (natural protein),proportion of VP1 in the VP1/VP2 VLP,5.11%
same,proportion of VP1 in the VP1h/VP2 VLP,25.4%
